Columns and labels:
[1] = biological target: T1, recombinant human EGFR extracellular domain with 6xHis (human, UniProt P00533 25-645); assay: SPR competition, competitor 1042
T1 construct: In-house produced; also called 6xHis EGFR ECD; soluble human EGFR ECD; not shown: 6xHis tag
Protocol: (§1) SPR analysis was performed on a Biacore 3000 machine containing four flow cells. A CM5 Biacore chip was conjugated with 10,000 Resonance units (Ru) polyclonal anti-His antibody to flow cells 1-4 according to the manufacturer's instructions. […] Immediately after antigen injection the maximal binding of the Anti-EGFR mAb without competition was established in each flow cell during a reference run. Briefly 5 μl antibody at a concentration of 40 μg/ml was injected over all flow cells with captured EGFR followed by stripping of the antibody/antigen complex with a low pH acid wash (10 sec. contact time with 10 mM Glycine-HCl, pH2). After the determination of Anti-EGFR antibody maximal binding to each flow cell, a competition run was performed during the same Biacore cycle. Flow cells were first saturated with EGFR ECD antigen followed by injection of different reference antibodies or Anti-EGFR antibodies into separate flow cells using the same antigen saturating conditions as outlined above. This step was immediately followed by a second injection of Anti-EGFR antibody over the flow cell saturated with EGFR antigen and competition antibody to minimize the dissociation of either antigen or blocking antibody. Then the antibody/antigen complexes were stripped off with a low pH acid wash (10 sec. contact time with 10 mM Glycine-HCl, pH 2) and the whole cycle beginning with the reference run was repeated with a new Anti-EGFR antibody. The degree of inhibition of tested Anti-EGFR antibodies were determined by comparing the Ru max value of the individual Anti-EGFR antibody before and after competition by introduction of report points recorded two seconds before and after injection of each sample.

[2] = biological target: T1, recombinant human EGFR extracellular …; assay: SPR competition, competitor 1308
Protocol: as §1

[3] = biological target: T1, recombinant human EGFR extracellular …; assay: SPR competition, competitor 1449
Protocol: as §1

[4] = biological target: T2, Cynomolgus EGFR extracellular domain (Cynomolgus monkey (Macaca fascicularis), UniProt P55245 25-645 (rhesus entry)); assay: ELISA on cynomolgus EGFR ECD (Example 10)
T2 construct: Cloned without signal peptide; also called Cynomolgus rEGFR ECD; Cynomolgus EGFR ECD
Summary of the method: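 Wells coated overnight at 4 °C with 1 μg/ml EGFR protein, then given serial four-fold antibody dilutions from 1 μg/ml for 1 h at room temperature. Binding detected with streptavidin-HRP and TMB, read at OD 450 nm.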

[5] = biological target: T3, wild type full length EGFR purified from A431 cells (human, UniProt P00533 25-1210); assay: competition ELISA, competitor Ab-1; set-up: concentration or dose not given beside the values
T3 construct: mature; Bought; coated on ELISA wells; also called full length EGFR receptor antigen; Sigma E3641
Protocol: (§2) The ELISA was adapted from the descriptions published in Ditzel et al, 1995, The Journal of Immunology, Vol 154, Issue 2 893-906.
(§3) An epitope blocking ELISA was performed by diluting full length EGFR receptor antigen to 0.5 μg/ml in PBS; and coating 50 μl/ELISA well overnight at 4° C. […] Finally wells were washed four times with PBS-T and plates were developed by adding 50 μl/well TMB and read at 620 nm every 5-15-30 min. The degree of inhibition was calculated from the formula: % inhibition=(1−(OD competition/OD no competition (PBS)))×100.

[6] = biological target: T3, wild type full length EGFR purified …; assay: competition ELISA, competitor Ab-2; set-up: concentration or dose not given beside the values
Protocol: as §2, §3

[7] = biological target: T3, wild type full length EGFR purified …; assay: competition ELISA, competitor Ab-3; set-up: concentration or dose not given beside the values
Protocol: as §2, §3

[8] = biological target: T3, wild type full length EGFR purified …; assay: competition ELISA, competitor Ab-5; set-up: concentration or dose not given beside the values
Protocol: as §2, §3

[9] = biological target: T3, wild type full length EGFR purified …; assay: competition ELISA, competitor Ab-10; set-up: concentration or dose not given beside the values
Protocol: as §2, §3

[10] = biological target: T3, wild type full length EGFR purified …; assay: competition ELISA, competitor Ab-11; set-up: concentration or dose not given beside the values
Protocol: as §2, §3

[11] = biological target: T3, wild type full length EGFR purified …; assay: competition ELISA, competitor ICR10; set-up: concentration or dose not given beside the values
Protocol: as §2, §3

[12] = biological target: T1, recombinant human EGFR extracellular …; assay: SPR (BIAcore 2000); IgG captured on anti-human Fc, soluble monovalent EGFR ECD injected
Protocol: Kinetic analysis of the full length IgG antibodies of the invention was performed on a BIAcore 2000, employing an assay as described in (Canziani, Klakamp, et al. 2004, Anal. Biochem, 325:301-307) allowing measurement of monovalent affinities of whole IgG molecules against soluble antigen. […] The chip surface was regenerated in between cycles by stripping the captured antibody/antigen complexes with a 10 second injection of 100 mM H₃PO₄. […] The association rate constant (ka) and dissociation constant (kd) were evaluated globally from the generated sensograms with the BIA evaluation software 4.1 provided by the manufacturer.

% inhibition [1] [%] | % inhibition [2] [%] | % inhibition [3] [%] | binding result [4] | % inhibition [5] [%] | % inhibition [6] [%] | % inhibition [7] [%] | % inhibition [8] [%] | % inhibition [9] [%] | % inhibition [10] [%] | % inhibition [11] [%] | Kd [12] [nM] | koff [12] [s⁻¹] | kon [12] [M⁻¹ s⁻¹] | t1/2 [12] [min] | Binder
-18 | -10 | -20 | binds | 3 | 6 | 30 | 6 | 13 | 88 | 57 | 18.6 | 0.0032 | 170000 | 3.6 | antibody 1261 (antibody, human IgG1, kappa, V domains shown, Chimeric IgG1 kappa) VH: EVQLVESGGGLVKPGGSLKLSCAVSGFTFSSYVMSWVRQTPEKRLEWVATITSGGRNIYYLDSVKGRFTISRDNAKNTLYLQMSSLRSEDTAMYYCARHEDYRYDGYYAMDYWGQGTSVTVSS VL: QIVLTQSPAIMSASPGEKVTITCSASSSVSYMHWFQQKPGTSPKLWIYSTSNLASGVPARFSGSGSGTSYSLTISRMEAEDAATYYCQQRSSYPYTFGGGTKLELKR
48 | -2 | 50 | no binding | 9 | -9 | 0 | 6 | 7 | 8 | 2 | 24.2 | 0.0028 | 120000 | 4.1 | antibody 1320 (antibody, human IgG1, kappa, V domains shown, Chimeric IgG1 kappa) VH: QVQLQQPGAELVKPGASMKLSCKASGYTFTNYWMHWVKQRPGQGLEWIGEINPSNGRTNYNEKFKSKATLTVDKSSSTAYMQLSSLTSEDSGVYYCAKGGNYYDYDWDYWGQGTTLTVSS VL: DIQMTQTTSSLSASLGDRVTISCSASQDISNYLNWYQQKPDGTVKLLIYHTSTLHSGVPSRFSGSGSGTDYSLTISNLEPEDIATYYCQQYSKLPWTFGGGTKLEIKR
-1 | 68 | -1 | binds | 12 | 26 | 9 | 31 | 30 | 52 | 88 | 4.6 | 0.00015 | 32000 | 78.1 | antibody 1284 (antibody, human IgG1, kappa, V domains shown, Chimeric IgG1 kappa) VH: QVQLQQPGAELVKPGASVKLSCKASGYTFTSDWMHWMKQRPGQGLEWIGEINPSNGRSSYNEKFKSKATLTVDKSSSTAYMQLSSLTSEDSAVYYCARIGGIYVETYWGQGTLVTVSS VL: DIVLTQSPASLAVSLGQRATISCRASQSVSTSTYSYMHWYQQKSGQPPKLLIKYASNLESGVPARFSGSGSGTDFTLNIHPVEEEDTATYYCQHSWEIPWTFGGGTKLEIKR
11 | -12 | 4 | binds | 91 | -1 | -35 | 92 | 92 | -20 | 12 | 29.2 | 0.00037 | 13000 | 31.1 | antibody 1030 (antibody, human IgG1, kappa, V domains shown, Chimeric IgG1 kappa) VH: EVQLVESGGGLVKPGGSLKLSCAASGFTFSSYALSWVRQTPERRLEWVASISGVGSTYFPDSVKGRFTMSRDNARNILYLQMSSLRSEDTAMYYCARGSDGYFYAMDYWGQGTSVTVSS VL: DIVLTQSPASLAVSLGQRATISCRASKSVSTSGYSFMHWYQLKPGQPPKLLIYLASNLESGVPARFSGSGSGTDFTLNIHPVEEEDAATYYCQHSREFPLTFGGGTKLEIKR

— patent publication US20110135636A1 (SYMPHOGEN A S, published 2011)
